{"source": "paper PMC6944378", "origin": "cited, not measured here", "target": "MASP-2 (Homo sapiens) (UniProt O00187)", "sequence (O00187 16-686)": "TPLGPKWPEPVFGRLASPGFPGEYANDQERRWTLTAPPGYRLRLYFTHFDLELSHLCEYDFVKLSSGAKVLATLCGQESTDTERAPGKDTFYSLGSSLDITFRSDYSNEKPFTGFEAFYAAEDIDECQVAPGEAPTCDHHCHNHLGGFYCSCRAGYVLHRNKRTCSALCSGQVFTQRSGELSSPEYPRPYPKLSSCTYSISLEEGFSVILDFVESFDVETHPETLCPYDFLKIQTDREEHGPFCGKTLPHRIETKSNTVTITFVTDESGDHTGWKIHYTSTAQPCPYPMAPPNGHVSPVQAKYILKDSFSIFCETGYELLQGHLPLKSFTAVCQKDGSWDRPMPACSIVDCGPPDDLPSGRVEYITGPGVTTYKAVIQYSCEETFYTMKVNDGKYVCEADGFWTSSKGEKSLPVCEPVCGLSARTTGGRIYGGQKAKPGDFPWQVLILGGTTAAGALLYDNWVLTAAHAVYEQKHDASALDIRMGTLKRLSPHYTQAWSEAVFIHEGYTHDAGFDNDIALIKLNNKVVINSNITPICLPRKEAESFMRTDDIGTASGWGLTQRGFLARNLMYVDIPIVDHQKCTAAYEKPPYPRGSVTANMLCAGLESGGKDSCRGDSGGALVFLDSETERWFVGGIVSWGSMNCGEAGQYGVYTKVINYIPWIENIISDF", "experiment": "SPR", "data": [{"substance": "ecotin (from UniProt P23827)", "values": [{"measurement": "Kd", "value": 24.7, "unit": "nM"}]}]}
